Data on 2 molecules can be found in patent US20220089725A1.

For assay [1], the target named is human FCMR on blood cells (human) (UniProt O60667). The assay can be described thus: flow cytometry of fresh human whole blood, isotype control row of the left (2A5) panel; gated subset not stated; FMO row reads 24.7.
The target is the same in assay [2]. The assay can be described thus: flow cytometry of fresh human whole blood, isotype control row of the right (3F9) panel; gated subset not stated; FMO row reads 24.7. Background: In flow cytometry, cells or beads pass a laser one at a time.
Assay [3] shares this target. The experiment in a line: flow cytometry of fresh human whole blood, gated CD19+ B cells, aToso 2A5 : AF647, left panel.
For assay [4] the target is unchanged. The assay can be described thus: flow cytometry of fresh human whole blood, gated CD3+CD8+ T cells, aToso 2A5 : AF647, left panel.
Assay [5] has as its target recombinant human FCMR-Fc (human) (UniProt O60667). The assay can be described thus: SPR (Biacore), 25 C, antibody immobilised, FCMR-Fc titrated at 500 to 0 nM.
Assay [6] addresses human FCMR on blood cells (human) (UniProt O60667). The experiment in a line: flow cytometry of fresh human whole blood, gated CD3+CD4+ T cells, aToso 2A5 : AF647, left panel.

Chain of UniProt O60667 (O60667 17-390): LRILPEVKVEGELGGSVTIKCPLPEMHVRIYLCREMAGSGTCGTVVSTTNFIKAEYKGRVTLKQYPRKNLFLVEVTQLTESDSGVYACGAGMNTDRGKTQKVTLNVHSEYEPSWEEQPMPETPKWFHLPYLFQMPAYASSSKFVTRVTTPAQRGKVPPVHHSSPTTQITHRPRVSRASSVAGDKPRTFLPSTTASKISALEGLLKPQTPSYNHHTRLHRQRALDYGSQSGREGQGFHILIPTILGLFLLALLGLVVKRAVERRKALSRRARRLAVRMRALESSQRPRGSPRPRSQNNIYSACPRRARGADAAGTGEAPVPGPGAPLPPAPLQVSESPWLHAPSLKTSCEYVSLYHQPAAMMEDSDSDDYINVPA

With Isotype Control (antibody), the mean fluorescence intensity in assay [1] and in assay [2] was 25.6 in each case.

B1: FCMR 2A5 antibody (antibody, V domains shown)
VH: EVQLVESGGDLVKPGGSLKLSCAASGFTFSSYGMSWVRQTPDKRLEWVATINSGGSSIYYPDSVKGRFTISRDNAKNTLYLQMSSLKSEDTAMYYCARHNYDSSYRYAMDYWGQGTSVTVSS
VL: DIKMTQSPSSMYASLGERVTITCKASQDINNFLSWFQQKPGKSPKTLIYRANGLVDGVPSRFSGSGSGQDYSLTISSLEYEDMGIYYCLQYDEFPPTFGGGTKLEFKR
Usually Kd stands for the constant that tells how readily two partners part at equilibrium. For orientation: koff means the rate constant with which the complex falls apart. Broadly, the kon is the second-order rate constant of association. The molecule B1 yielded a mean fluorescence intensity in assay [3] of 960. The molecule further came in with a mean fluorescence intensity in assay [4] of 414. Moreover, in assay [5], the Kd is 7.21 nM, the koff turned out to be 0.000247 s⁻¹ and the kon worked out at 34700 M⁻¹ s⁻¹. The molecule further registered a mean fluorescence intensity in assay [6] of 247.
